For two substances, level bound to the APC/C as percent of wild type (mad3-C9A mad2-S92A strain, 45 and 60 min) and MCC-APC/C level as percent of wild type, 60 min results are on record in article PMC4755545.

For this assay, the target named is TAP-tagged Lid1 (Apc4), subunit of the APC/C (S. pombe) (UniProt O42839). Kind of assay: co-IP; Apc4-TAP pulled down with IgG Dynabeads from extracts of cdc25-22 cells released from G2 into mitosis at 25°C, carbendazim added after 20 min, time points every 15 min; blots for Mad3p (anti-GFP) and Mad2p; lysis buffer 50 mM HEPES pH 7.5, 75 mM KCl, 0.1% TritonX-100; strains wild type, mad3-KEN1, mad3-KEN2, mad3-C9A, mad2-S92A, mad3-C9A mad2-S92A.
Sequence of UniProt O42839 (O42839 whole entry): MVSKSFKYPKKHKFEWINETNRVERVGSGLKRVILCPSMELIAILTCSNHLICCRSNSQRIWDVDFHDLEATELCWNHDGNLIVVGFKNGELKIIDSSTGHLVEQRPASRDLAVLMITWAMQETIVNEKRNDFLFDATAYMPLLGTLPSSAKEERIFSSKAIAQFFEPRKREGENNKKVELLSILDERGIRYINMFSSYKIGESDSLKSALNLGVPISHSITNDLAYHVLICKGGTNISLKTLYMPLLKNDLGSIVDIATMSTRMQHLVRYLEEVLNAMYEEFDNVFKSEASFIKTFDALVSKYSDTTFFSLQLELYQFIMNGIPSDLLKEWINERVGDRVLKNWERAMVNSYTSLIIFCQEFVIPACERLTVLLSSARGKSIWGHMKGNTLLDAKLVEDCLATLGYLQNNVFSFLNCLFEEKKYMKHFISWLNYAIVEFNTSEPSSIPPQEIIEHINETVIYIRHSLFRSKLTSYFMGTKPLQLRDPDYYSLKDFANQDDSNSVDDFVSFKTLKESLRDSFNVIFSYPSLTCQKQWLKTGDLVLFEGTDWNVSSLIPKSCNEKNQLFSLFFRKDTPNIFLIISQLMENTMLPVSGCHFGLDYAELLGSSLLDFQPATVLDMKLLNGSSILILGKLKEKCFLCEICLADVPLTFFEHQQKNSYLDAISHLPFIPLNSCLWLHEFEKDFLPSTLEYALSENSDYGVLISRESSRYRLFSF

Turning to “Mad3-C9A tagged with GFP (from UniProt O59767 1-310) (natural protein)”, the level bound to the APC/C as percent of wild type (mad3-C9A mad2-S92A strain, 45 and 60 min) stood at 20%.

In the case of “Mad3-KEN2 mutant tagged with GFP (from UniProt O59767 1-310) (natural protein)”, the MCC-APC/C level as percent of wild type, 60 min stood at 65%.
